The target of one test is T1, alpha1A-adrenoceptor (Homo sapiens, UniProt P35348).
T1 chain: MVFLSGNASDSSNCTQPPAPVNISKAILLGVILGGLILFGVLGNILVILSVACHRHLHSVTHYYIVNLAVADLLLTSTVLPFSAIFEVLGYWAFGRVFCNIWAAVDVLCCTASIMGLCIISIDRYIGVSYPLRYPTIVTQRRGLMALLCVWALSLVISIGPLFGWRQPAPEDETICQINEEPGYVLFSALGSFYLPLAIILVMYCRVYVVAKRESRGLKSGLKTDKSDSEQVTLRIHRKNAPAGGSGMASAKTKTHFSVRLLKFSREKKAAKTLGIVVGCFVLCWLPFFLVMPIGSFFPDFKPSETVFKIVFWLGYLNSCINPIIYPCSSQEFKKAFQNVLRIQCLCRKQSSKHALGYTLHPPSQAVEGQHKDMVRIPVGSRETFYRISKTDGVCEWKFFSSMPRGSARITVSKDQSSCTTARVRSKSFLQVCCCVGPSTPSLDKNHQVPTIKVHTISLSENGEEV
Kind of test: [3H]-Prazosin equilibrium inhibition binding.

The target of test [1] is T2, Muscarinic acetylcholine receptor M1 (Homo sapiens, UniProt P11229).
T2 chain: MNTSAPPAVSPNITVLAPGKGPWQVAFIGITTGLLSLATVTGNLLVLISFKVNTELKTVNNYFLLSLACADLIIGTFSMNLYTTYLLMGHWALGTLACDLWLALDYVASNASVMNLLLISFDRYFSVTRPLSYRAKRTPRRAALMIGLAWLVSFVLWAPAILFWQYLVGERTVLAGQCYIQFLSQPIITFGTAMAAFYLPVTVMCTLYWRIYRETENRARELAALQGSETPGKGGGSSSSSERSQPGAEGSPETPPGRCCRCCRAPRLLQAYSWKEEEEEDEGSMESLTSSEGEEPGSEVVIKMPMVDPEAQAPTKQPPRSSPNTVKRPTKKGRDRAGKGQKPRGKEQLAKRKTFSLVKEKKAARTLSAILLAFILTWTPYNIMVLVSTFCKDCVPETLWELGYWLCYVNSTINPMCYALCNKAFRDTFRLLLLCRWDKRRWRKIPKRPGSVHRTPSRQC
Briefly: [3H]-NMS equilibrium inhibition binding.

The target of test [2] is T3, Muscarinic acetylcholine receptor M4 (Homo sapiens, UniProt P08173).
T3 chain: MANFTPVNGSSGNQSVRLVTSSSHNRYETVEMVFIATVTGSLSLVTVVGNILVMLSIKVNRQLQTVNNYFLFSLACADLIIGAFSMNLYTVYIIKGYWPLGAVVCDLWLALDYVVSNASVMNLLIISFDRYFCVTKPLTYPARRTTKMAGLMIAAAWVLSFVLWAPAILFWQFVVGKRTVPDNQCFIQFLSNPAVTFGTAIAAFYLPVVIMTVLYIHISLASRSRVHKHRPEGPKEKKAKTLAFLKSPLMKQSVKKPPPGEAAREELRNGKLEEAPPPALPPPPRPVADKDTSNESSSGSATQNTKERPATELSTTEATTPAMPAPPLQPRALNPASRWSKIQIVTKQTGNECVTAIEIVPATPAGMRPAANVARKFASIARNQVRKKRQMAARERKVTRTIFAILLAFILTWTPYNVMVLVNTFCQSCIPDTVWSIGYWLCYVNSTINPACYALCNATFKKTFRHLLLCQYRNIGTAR
Briefly: [3H]-NMS equilibrium inhibition binding.

B1: Muscarinic toxin 7 (MT7) (protein)
chain: LTCVKSNSIWFPTSEDCPDGQNLCFKRWQYISPRMYDFTRGCAATCPKAEYRDVINCCGTDKCNK
With B1, the Ki – broadly, a measure of affinity in units of concentration, obtained from inhibition or displacement – with alpha1A-adrenoceptor is greater than 20000 nM; in test [1] it was 0.034 nM; in test [2], 13000 nM.

B2: Muscarinic toxin 1 (MT1) (protein)
chain: LTCVTSKSIFGITTENCPDGQNLCFKKWYYIVPRYSDITWGCAATCPKPTNVRETIRCCETDKCNE
As for B2, the Ki with alpha1A-adrenoceptor was 62 nM; in test [1], 24 nM; in test [2], 310 nM.

For the origin of these results see PMC3375269 (2012).
